Assay [1] addresses T1, bovine type I atelocollagen (Bos taurus, UniProt P02453+P02465, DEL1103-1117).
T1 construct: bovine type I atelocollagen (=pepsin-treated type I collagen; Matrix Bioscience); purchased Matrix Bioscience
Nature of the assay: SPR binding of telopeptide derivatives to immobilized atelocollagen. As to conditions: for ka1: SPR Biacore T100, CM5 chip, analyte 45 to 950 μM, HEPES buffer pH 7.4, 25°C; for ka1 / ka2 / kd1 / kd2: two-state reaction model, mean of n = 5; for ka2 / kd1 / kd2 / Kd / kon / koff: SPR; for ka2 / kd1 / kd2 / Kd: pH 7.4, 25°C; for Kd: calculated from the individual rate constants (Equation 1); for Kd / kon / koff: n = 5; for kon: calculated as koff/KD (Equation 3), read-out: kon (global association rate constant to final complex); for koff: calculated from the individual rate constants (Equation 2), read-out: koff (global dissociation rate constant of final complex). The method, then:
In order to probe binding of the telopeptide derivatives to atelocollagen surface plasmon resonance (SPR) measurements were performed on a T100 Biacore system (GE Healthcare) (Hoppmann et al., [2010]). In brief, bovine type I atelocollagen (=pepsin-treated type I collagen; Matrix Bioscience) was immobilized as ligand on a CM5 (carboxymethylated dextran polymer) sensor chip using EDC/NHS chemistry. About 12,000 arbitrary response (resonance) units (RU) were immobilized. Various concentrations of the analytes (1, 2, and 4a) ranging from 45 to 950 μM were analyzed. The flow buffer used was 10 mM HEPES, 3.0 mM EDTA-Na2, 0.15 M NaCl (pH 7.4) containing 0.05% surfactant P20. Association and dissociation of all analytes was followed in real-time and measured at 25°C at a flow rate of 30 μL/min. After each cycle, the surface was regenerated using 50 mM NaOH. The data were fitted to a two-state reaction model (see scheme below) including reference subtraction and blank buffer correction derived from blank runs using the Biacore Evaluation software 2.0.4.
The parameters KD, koff, and kon were calculated from the individual rate constants by the following equations (Tummino and Copeland, [2008]): […]

Assay [2] concerns the target bovine type I atelocollagen (pepsin-treated bovine type I collagen) (bovine). In words: SPR; Biacore T100; bovine type I atelocollagen immobilised on a CM5 chip by EDC/NHS (about 12,000 RU); peptides as analytes, 45 to 950 μM; 10 mM HEPES, 3.0 mM EDTA-Na2, 0.15 M NaCl, pH 7.4, 0.05% surfactant P20; 25°C; 30 μL/min; two-state reaction model; KD, koff and kon calculated from the individual rate constants. As to conditions: both partners purified.

Where a SMILES comes first, the peptide text is derived from it. [ ]: non-standard residue; d: D form. The star is where a group is joined. Benzoyl(4-F) = O=C(c1ccc(F)cc1)*; pGlu = O=C1CC[C@@H](C(=O)O)N1

T1 sequence (P02453 178-1191 limits assumed, stated change not applied): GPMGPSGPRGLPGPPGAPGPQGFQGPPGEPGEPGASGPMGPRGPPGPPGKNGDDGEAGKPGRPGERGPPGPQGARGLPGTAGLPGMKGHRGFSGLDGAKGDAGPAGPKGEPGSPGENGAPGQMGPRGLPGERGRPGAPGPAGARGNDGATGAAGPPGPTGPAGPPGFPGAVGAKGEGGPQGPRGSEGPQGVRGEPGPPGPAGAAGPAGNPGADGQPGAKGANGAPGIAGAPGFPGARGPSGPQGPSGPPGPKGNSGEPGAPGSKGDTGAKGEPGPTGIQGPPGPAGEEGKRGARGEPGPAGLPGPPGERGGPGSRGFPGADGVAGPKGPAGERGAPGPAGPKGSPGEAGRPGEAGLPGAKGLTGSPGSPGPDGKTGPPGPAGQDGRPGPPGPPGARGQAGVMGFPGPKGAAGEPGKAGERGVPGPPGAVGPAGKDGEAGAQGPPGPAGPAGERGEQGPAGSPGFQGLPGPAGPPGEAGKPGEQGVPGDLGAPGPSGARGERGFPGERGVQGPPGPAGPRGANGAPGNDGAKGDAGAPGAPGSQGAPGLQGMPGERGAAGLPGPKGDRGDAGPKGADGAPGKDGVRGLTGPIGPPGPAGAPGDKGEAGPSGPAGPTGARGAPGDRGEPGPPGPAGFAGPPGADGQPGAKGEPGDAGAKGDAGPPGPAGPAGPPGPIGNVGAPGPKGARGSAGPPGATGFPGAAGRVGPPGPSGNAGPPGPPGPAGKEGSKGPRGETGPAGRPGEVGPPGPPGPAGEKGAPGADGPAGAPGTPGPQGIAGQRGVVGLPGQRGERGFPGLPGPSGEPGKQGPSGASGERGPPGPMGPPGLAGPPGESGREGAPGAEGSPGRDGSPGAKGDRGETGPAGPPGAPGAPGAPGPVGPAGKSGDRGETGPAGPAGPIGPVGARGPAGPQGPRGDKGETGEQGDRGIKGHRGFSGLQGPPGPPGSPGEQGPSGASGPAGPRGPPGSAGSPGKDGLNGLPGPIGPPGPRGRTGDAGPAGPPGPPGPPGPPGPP
T1 sequence (P02465 89-1102 limits assumed, stated change not applied): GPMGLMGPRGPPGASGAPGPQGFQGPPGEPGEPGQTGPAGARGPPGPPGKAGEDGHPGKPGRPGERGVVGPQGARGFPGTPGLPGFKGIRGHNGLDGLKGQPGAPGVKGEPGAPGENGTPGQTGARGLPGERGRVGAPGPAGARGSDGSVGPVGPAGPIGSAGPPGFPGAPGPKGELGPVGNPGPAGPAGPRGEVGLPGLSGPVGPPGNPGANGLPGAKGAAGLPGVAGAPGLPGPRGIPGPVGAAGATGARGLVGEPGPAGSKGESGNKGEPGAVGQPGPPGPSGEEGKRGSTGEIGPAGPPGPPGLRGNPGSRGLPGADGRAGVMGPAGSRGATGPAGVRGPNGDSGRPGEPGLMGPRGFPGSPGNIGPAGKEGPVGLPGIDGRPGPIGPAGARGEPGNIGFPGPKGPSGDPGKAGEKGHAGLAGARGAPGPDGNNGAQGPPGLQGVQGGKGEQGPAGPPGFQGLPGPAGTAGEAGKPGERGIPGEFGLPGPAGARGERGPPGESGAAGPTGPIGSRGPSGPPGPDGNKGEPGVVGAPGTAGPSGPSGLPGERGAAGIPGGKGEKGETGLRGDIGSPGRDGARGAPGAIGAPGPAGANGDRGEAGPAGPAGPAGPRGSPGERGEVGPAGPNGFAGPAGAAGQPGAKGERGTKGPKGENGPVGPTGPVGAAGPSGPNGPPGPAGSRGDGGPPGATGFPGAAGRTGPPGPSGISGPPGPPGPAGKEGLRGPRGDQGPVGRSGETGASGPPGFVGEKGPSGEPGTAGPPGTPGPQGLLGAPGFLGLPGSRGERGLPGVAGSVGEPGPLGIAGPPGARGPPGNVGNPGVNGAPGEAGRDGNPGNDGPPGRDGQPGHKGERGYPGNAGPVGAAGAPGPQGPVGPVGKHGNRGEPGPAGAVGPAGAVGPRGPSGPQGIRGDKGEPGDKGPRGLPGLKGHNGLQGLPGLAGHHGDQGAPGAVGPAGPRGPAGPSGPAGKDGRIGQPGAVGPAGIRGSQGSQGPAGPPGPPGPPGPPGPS

In assay [1], `CC[C@H](C)[C@H](NC(=O)CNC(=O)[C@@H](NC(=O)[C@H](CO)NC(=O)[C@H](CCCCN)NC(=O)[C@H](CCC(=O)O)NC(=O)[C@H](CC(=O)O)NC(=O)[C@H](Cc1ccc(O)cc1)NC(=O)CNC(=O)[C@H](Cc1ccc(O)cc1)NC(=O)[C@H](CO)NC(=O)[C@H](CC(C)C)NC(=O)[C@@H]1CCC(=O)N1)[C@@H](C)O)C(=O)N[C@@H](CO)C(=O)N[C@H](C(=O)N1CCC[C@H]1C(N)=O)C(C)C` [Peptide 1, pGlu-LSYGYDEKSTGISVP-NH2, reference compound] ([pGlu]LSYGYDEKSTGISVP-NH2) came in with a ka1 of 123 M⁻¹ s⁻¹, a ka2 of 0.00532 s⁻¹, a kd1 of 0.75 s⁻¹ and a kd2 of 0.00294 s⁻¹. In assay [1], the Kd was 2170 µM, the on-rate (kon) was 1.34 M⁻¹ s⁻¹ and the koff is 0.00291 s⁻¹.
In the case of `NCCCC[C@H](NC(=O)[C@@H]1CCCN1C(=O)[C@H](CC(=O)O)NC(=O)CNC(=O)CNC(=O)CNC(=O)c1ccc(F)cc1)C(=O)NCC(=O)NCC(=O)NCC(=O)NCC(=O)NCC(N)=O` [Peptide 4a, FBz-GGGDPKGGGGG-NH2] ({Benzoyl(4-F)}-GGGDPKGGGGG-NH2), in assay [1], the ka1 stood at 188 M⁻¹ s⁻¹, the ka2 stood at 0.00494 s⁻¹, the kd1 came out at 0.268 s⁻¹ and the kd2 worked out at 0.00411 s⁻¹. In assay [1], the kon was 6.15 M⁻¹ s⁻¹ and the koff is 0.00398 s⁻¹.
Turning to `CC[C@H](C)[C@H](NC(=O)CNC(=O)[C@@H](NC(=O)[C@H](CO)NC(=O)[C@H](CCCCN)NC(=O)[C@H](CCC(=O)O)NC(=O)[C@H](CC(=O)O)NC(=O)[C@H](Cc1ccc(O)cc1)NC(=O)CNC(=O)[C@H](Cc1ccc(O)cc1)NC(=O)[C@H](CO)NC(=O)[C@H](CC(C)C)NC(=O)c1ccc(F)cc1)[C@@H](C)O)C(=O)N[C@@H](CO)C(=O)N[C@H](C(=O)N1CCC[C@H]1C(N)=O)C(C)C` [Peptide 2, FBz-LSYGYDEKSTGISVP-NH2] ({Benzoyl(4-F)}-LSYGYDEKSTGISVP-NH2), in assay [1], the Kd is 78.8 µM, the kon was 11.2 M⁻¹ s⁻¹ and the koff is 0.000879 s⁻¹.

B1: DPK-containing undecapeptide 4a, FBz-GGGDPKGGGGG-NH2 (peptide)
chain: {Benzoyl(4-F)}-GGGDPKGGGGG-NH2
SMILES: NCCCC[C@H](NC(=O)[C@@H]1CCCN1C(=O)[C@H](CC(=O)O)NC(=O)CNC(=O)CNC(=O)CNC(=O)c1ccc(F)cc1)C(=O)NCC(=O)NCC(=O)NCC(=O)NCC(=O)NCC(N)=O
B1: in assay [2], the dissociation constant Kd was 647 µM; the “ka1 (two-state model, step 1)” value is 188 M⁻¹ s⁻¹; the “ka2 (two-state model, step 2)” value is 0.00494 s⁻¹; the “kd1 (two-state model, step 1)” value is 0.268 s⁻¹. Also, in assay [2], the “kd2 (two-state model, step 2)” value is 0.00411 s⁻¹; the koff was 0.00398 s⁻¹; the kon was 6.15 M⁻¹ s⁻¹.

B2: 4-fluorobenzoylated α1(I)-N-telopeptide analog (peptide 2), FBz-LSYGYDEKSTGISVP-NH2 (peptide)
peptide: {Benzoyl(4-F)}-LSYGYDEKSTGISVP-NH2
SMILES: CC[C@H](C)[C@H](NC(=O)CNC(=O)[C@@H](NC(=O)[C@H](CO)NC(=O)[C@H](CCCCN)NC(=O)[C@H](CCC(=O)O)NC(=O)[C@H](CC(=O)O)NC(=O)[C@H](Cc1ccc(O)cc1)NC(=O)CNC(=O)[C@H](Cc1ccc(O)cc1)NC(=O)[C@H](CO)NC(=O)[C@H](CC(C)C)NC(=O)c1ccc(F)cc1)[C@@H](C)O)C(=O)N[C@@H](CO)C(=O)N[C@H](C(=O)N1CCC[C@H]1C(N)=O)C(C)C
notes: N-terminal telopeptide of the α1 chain of type I collagen without its N-terminal pyroglutamate, which is replaced by a 4-fluorobenzoyl residue; source: synthetic peptide (microwave-assisted Fmoc solid-phase synthesis, as in Kuchar et al., 2012)
As to B2, in assay [2], the Kd was 78.8 µM; the “ka1 (two-state model, step 1)” value was 57.4 M⁻¹ s⁻¹; the “ka2 (two-state model, step 2)” value is 0.0141 s⁻¹; the “kd1 (two-state model, step 1)” value is 0.0631 s⁻¹. Further, in assay [2], the “kd2 (two-state model, step 2)” value is 0.00109 s⁻¹; the koff is 0.000879 s⁻¹; the kon was 11.2 M⁻¹ s⁻¹.

B3: α1(I)-N-telopeptide (peptide 1), pGlu-LSYGYDEKSTGISVP-NH2 (peptide)
peptide: [pGlu]LSYGYDEKSTGISVP-NH2
SMILES: CC[C@H](C)[C@H](NC(=O)CNC(=O)[C@@H](NC(=O)[C@H](CO)NC(=O)[C@H](CCCCN)NC(=O)[C@H](CCC(=O)O)NC(=O)[C@H](CC(=O)O)NC(=O)[C@H](Cc1ccc(O)cc1)NC(=O)CNC(=O)[C@H](Cc1ccc(O)cc1)NC(=O)[C@H](CO)NC(=O)[C@H](CC(C)C)NC(=O)[C@@H]1CCC(=O)N1)[C@@H](C)O)C(=O)N[C@@H](CO)C(=O)N[C@H](C(=O)N1CCC[C@H]1C(N)=O)C(C)C
notes: N-terminal telopeptide of the α1 chain of type I collagen; also called N-terminal telopeptide of the α1 chain of type I collagen; authentic isolated α1(I)-N-telopeptide; source: synthetic peptide (microwave-assisted Fmoc solid-phase synthesis)
Turning to B3, in assay [2], the Kd is 2170 µM; the “ka1 (two-state model, step 1)” value was 123 M⁻¹ s⁻¹; the “ka2 (two-state model, step 2)” value was 0.00532 s⁻¹; the “kd1 (two-state model, step 1)” value is 0.75 s⁻¹. In assay [2], the “kd2 (two-state model, step 2)” value is 0.00294 s⁻¹; the koff was 0.00291 s⁻¹; the on-rate constant (kon) is 1.34 M⁻¹ s⁻¹.

Broadly, the Kd is a measure of binding affinity in units of concentration. Broadly, the kon is a measure of how fast the partners come together. The term koff denotes the rate constant with which the complex falls apart.
